Assay results: patent publication US20080058636A1 (EPIX PHARMACEUTICALS, published 2008)
Bridge positions count the residues as written; N and C are the ends. Ends that are not written are not given here.

What was measured:
[1] = target: T1, rat collagen (acid soluble, type I, rat tail, Upstate 08-115) (rat, UniProt P02454 152-1207; P02466 86-1125); assay: dried collagen assay
T1 construct: gelled and dried as a fibril film in the dried collagen assay; also called dried rat collagen; insoluble rat collagen
T1 sequence (P02454 152-1207, chain 1 of 2): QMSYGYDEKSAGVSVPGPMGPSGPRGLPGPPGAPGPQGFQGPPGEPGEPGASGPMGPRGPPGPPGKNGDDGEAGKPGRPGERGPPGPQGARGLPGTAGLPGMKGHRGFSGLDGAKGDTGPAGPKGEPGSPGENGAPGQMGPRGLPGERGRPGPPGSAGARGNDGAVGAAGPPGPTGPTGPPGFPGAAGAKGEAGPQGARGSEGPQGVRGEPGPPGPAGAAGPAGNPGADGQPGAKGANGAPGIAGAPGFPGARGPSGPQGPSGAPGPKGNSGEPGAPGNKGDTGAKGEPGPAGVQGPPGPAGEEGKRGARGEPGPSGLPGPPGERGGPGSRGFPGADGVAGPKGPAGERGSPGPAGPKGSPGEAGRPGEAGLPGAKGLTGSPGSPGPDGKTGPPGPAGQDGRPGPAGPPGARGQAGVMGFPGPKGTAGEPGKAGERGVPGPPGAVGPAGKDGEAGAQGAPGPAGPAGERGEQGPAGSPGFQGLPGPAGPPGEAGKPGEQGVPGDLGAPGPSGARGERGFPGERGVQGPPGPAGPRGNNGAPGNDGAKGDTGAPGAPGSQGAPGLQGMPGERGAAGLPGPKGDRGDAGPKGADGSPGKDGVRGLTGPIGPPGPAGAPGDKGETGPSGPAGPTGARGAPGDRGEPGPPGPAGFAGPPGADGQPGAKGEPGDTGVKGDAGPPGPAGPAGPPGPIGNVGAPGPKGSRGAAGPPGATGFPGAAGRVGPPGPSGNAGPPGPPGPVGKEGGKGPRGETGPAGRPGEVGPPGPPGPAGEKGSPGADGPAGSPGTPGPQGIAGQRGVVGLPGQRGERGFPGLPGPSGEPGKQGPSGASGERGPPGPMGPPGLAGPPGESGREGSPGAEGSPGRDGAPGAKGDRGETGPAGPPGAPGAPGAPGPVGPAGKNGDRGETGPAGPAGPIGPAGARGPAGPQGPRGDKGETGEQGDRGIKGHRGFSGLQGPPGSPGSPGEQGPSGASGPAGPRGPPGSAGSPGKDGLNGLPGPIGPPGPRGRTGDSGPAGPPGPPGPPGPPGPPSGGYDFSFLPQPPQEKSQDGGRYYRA
T1 sequence (P02466 86-1125, chain 2 of 2): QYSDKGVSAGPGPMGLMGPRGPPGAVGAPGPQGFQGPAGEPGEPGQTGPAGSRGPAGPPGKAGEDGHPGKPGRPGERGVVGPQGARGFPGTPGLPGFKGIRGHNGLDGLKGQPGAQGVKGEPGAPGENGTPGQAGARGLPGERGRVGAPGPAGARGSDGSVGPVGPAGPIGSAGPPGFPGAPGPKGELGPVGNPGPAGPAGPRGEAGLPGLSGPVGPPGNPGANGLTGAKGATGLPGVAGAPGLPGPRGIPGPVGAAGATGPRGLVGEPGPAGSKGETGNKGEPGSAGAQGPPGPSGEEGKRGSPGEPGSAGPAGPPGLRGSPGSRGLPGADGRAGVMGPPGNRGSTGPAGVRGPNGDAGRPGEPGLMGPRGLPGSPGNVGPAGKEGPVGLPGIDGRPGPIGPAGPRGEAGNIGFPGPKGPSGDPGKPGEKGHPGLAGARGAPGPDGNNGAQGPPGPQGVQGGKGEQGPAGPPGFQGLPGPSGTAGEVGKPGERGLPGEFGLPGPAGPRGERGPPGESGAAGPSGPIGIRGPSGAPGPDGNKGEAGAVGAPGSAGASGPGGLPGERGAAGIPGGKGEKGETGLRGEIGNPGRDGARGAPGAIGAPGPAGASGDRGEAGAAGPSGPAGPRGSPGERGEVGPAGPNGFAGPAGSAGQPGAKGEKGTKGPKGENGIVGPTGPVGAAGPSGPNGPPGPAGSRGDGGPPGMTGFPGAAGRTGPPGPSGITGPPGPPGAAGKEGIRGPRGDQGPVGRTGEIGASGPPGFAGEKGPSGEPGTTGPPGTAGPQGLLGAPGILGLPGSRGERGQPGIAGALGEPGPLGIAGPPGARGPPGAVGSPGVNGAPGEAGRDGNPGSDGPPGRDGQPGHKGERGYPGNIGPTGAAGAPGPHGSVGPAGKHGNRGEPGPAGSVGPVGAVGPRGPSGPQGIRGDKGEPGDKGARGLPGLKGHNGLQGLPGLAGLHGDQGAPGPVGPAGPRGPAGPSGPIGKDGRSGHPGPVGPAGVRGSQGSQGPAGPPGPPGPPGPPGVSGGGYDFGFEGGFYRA

[2] = target: T2, human collagen type I (acid soluble, extracted from placenta, Sigma C7774) (human, UniProt P02452 162-1218; P08123 80-1119); assay: dried collagen assay
T2 construct: gelled and dried as a fibril film in the dried collagen assay; also called dried human collagen; h-Collagen
T2 sequence (P02452 162-1218 limits assumed, chain 1 of 2): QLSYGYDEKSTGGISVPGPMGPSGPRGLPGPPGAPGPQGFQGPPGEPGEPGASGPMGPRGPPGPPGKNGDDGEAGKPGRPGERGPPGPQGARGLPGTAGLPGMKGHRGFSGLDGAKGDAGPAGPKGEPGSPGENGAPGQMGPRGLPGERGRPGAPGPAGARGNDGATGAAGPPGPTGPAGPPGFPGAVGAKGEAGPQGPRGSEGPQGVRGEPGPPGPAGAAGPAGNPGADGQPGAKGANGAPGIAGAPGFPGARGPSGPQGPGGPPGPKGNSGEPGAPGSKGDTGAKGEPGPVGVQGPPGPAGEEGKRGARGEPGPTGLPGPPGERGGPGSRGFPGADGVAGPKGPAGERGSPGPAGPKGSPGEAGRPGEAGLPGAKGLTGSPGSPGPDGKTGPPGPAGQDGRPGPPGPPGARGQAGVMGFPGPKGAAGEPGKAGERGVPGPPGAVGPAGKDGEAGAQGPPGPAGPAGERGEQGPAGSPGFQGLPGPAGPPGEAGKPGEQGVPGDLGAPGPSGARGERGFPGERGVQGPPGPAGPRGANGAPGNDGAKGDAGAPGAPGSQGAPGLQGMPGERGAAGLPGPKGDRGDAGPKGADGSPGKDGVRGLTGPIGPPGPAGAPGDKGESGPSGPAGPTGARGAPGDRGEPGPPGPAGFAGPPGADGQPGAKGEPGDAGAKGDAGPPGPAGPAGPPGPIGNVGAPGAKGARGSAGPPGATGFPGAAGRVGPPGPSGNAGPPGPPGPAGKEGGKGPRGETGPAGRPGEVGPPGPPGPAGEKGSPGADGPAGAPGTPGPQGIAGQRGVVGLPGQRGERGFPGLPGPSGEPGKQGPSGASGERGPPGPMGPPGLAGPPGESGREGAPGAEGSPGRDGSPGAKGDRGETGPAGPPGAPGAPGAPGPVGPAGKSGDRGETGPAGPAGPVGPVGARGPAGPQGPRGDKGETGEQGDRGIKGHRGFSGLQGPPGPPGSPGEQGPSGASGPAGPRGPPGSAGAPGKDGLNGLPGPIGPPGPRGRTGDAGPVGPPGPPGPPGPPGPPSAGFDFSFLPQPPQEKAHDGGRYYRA
T2 sequence (P08123 80-1119 limits assumed, chain 2 of 2): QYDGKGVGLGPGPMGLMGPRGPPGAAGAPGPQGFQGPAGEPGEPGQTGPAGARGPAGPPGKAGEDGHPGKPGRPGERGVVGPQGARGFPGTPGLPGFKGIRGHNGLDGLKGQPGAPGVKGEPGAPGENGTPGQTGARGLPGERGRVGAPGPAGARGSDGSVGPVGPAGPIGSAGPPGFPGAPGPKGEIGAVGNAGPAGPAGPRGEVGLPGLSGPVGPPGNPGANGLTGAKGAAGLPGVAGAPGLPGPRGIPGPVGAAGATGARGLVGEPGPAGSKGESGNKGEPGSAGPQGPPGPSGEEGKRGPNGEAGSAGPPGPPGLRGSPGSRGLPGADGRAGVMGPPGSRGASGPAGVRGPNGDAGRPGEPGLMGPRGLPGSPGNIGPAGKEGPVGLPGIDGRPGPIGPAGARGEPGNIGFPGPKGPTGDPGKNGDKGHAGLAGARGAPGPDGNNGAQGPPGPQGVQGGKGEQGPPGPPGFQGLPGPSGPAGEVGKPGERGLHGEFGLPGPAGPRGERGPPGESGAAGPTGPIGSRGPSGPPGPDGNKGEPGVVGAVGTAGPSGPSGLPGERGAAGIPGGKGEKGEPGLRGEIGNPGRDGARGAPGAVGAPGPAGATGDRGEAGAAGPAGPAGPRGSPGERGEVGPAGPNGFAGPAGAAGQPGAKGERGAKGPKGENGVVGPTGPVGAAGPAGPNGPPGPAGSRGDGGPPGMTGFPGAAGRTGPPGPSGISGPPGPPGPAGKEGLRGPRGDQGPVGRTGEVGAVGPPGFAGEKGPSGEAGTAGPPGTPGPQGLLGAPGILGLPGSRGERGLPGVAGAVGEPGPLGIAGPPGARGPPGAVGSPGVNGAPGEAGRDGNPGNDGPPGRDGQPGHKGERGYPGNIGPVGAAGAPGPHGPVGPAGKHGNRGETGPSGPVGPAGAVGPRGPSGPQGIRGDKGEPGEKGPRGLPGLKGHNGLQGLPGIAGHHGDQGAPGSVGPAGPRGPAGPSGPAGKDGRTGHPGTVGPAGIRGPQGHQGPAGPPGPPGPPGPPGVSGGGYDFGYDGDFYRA

| Binder | % Collagen Binding [1] | % Collagen Binding [2] |
| --- | --- | --- |
| YHASYQAGSWIW (not fully specified) [SEQ ID NO: 111] | 24% | 0% |
| YHACYQAGCYIW (disulfide 4-9; not fully specified (C-terminus)) [SEQ ID NO: 107] | 6% | – |
